Source: paper PMC6194676, “Blood-brain barrier-associated pericytes internalize and clear aggregated amyloid-β42 by LRP1-dependent apolipoprotein E isoform-specific mechanism” (Molecular Neurodegeneration, 2018)

B1: RAP: Receptor associated protein, an LRP1 antagonist which inhibits ligand binding to LRP1 (protein, UniProt P30533 35-357, looked up)
Alpha-2-macroglobulin …: YSREKNQPKPSPKRESGEEFRMEKLNQLWEKAQRLHLPPVRLAELHADLKIQERDELAWKKLKLDGLDEDGEKEARLIRNLNVILAKYGLDGKKDARQVTSNSLSGTQEDGLDDPRLEKLWHKAKTSGKFSGEELDKLWREFLHHKEKVHEYNVLLETLSRTEEIHENVISPSDLSDIKGSVLHSRHTELKEKLRSINQGLDRLRRVSHQGYSTEAEFEEPRVIDLWDLAQSANLTDKELEAFREELKHFEAKIEKHNHYQKQLEIAHEKLRHAESVGDGERVSRSREKHALLEGRTKELGYTVKKHLQDLSGRISRARHNEL

Key:
[1] = test system: CD13+ pericytes; assay: Cy3-Aβ42 uptake by pericytes on freshly isolated mouse brain cortical slices; type: cell-based; conditions: Cy3-Aβ42 1 μM
Protocol: Brain slices were prepared from 2-month old C57BL6 mice or Lrp^lox/lox;Cspg4-Cre mice. Following the urethane anesthesia, brains were quickly removed from the cranial cavity and sectioned with McIlwain tissue chopper (Ted Pella, Inc., Redding, CA, USA) into 200 μm thick slices containing cortex and hippocampus, as previously described. Slices were recovered for 30 min in a submersion chamber filled with the per-warmed (at 37 °C) artificial cerebrospinal fluid (aCSF; 126 mM NaCl, 2.5 mM KCl, 1.25 mM Na2PO4, 26 mM NaHCO3, 1 mM MgCl2, 2 mM CaCl2, 0.5 mM ascorbic acid, 2 mM sodium pyrurate, and 10 mM glucose, saturated with 95% O2 and 5% CO2). […] (anti-LRP1 N20, 50 μg/ml; Santa Cruz Biotech., Santa Cruz, CA, USA) for 20 min at 37 °C. At the end of the experiment, brain slices were washed with phosphate buffer saline (PBS) and fixed with 4% PFA for 30 min. The same immunostaining procedure as for human brain tissue without antigen retrieval was performed on mouse brain slices. Primary antibodies included goat anti-mouse aminopeptidase N (CD13) (1:100, R&D Systems), and goat anti-mouse PDGFRβ (1:100, R&D Systems). Secondary antibodies were: Alexa 488-conjugated donkey anti-goat (1:200, Invitrogen). Images were obtained with Zeiss 510 confocal microscopy (Carl Zeiss MicroImaging Inc.) with lasers and band-pass filter settings as described above. […]

[2] = test system: primary mouse brain pericytes; assay: Clearance of aggregated Cy3-Aβ42 from multi-spot glass slides by primary mouse brain pericytes; type: cell-based; conditions: 5 days of culture, 1 μg Cy3-Aβ42 per spot, 5,000 cells per spot; anti-LRP1 50 μg/ml, RAP 500 nM, or si.Lrp1; compared to cell-free control; N = 4 independent cultures, mean
Excerpt: Brain capillaries were isolated from mouse cortices pooled from 3 to 4 mouse brains for each biological replicate. In experiments in Figs. 4 and 5, we used 3–4 independent biological replicates (cultures), as indicated in the legends to these respective figures. Capillaries were isolated as we have described previously. In brief, mouse cortices were macroscopically dissected, and all visible white matter was discarded in ice-cold PBS containing 2% fetal bovine serum (FBS). The brain was homogenized in PBS containing 2% FBS and centrifuged at 6,000 g for 15 min after addition of Dextran (70 kDa, Sigma). The capillary pellet was collected and sequentially filtered through a 45 μm cell strainer (BD Falcon). […]
The multi-spot glass slides (Thermo Scientific, 9991090, Waltham, MA, USA) were coated with Cy3- Aβ42 [29, 51] at 1 μg per spot without cells or with brain capillary pericytes treated with non-immune IgG (NI-IgG) or LRP1-specific blocking antibody (anti-LRP1; 50 μg/ml) or) or apoE-specific blocking antibody (anti-apoE, HJ6.3, 50 μg/ml), scrambled siRNA (si.Control) or LRP1 siRNA (si.Lrp1) (Dharmacon, E-040764-00-0010) or apoE siRNA (si.Apoe) (Dharmacon, E-040885-00-0005), and 500 nM receptor-associated protein (RAP) (EMD Bioscience), lipidated apoE3 (40 nM) or apoE4 (40 nM). […] The Cy3-Aβ42 relative intensity was analyzed with the NIH Image J software. […]

Molecule | Uptake of Cy3-Aβ42 by pericytes, time course ([1]; 30 min vs 2 h) | Cy3-Aβ42 cleared by pericytes [2] [%] | Cy3-Aβ42+ area occupying CD13+ pericyte profiles ([1]; 2 h, in the presence of the LRP1 inhibitor (anti-LRP1 50 μg/ml), confocal microscopy, N = 4 independent cultures, mean) [%]
Cy3-Aβ42: Human Cy3-labelled amyloid-β42; preparation contained monomers, dimers, trimers, tetramers and small molecular weight oligomers [reference compound] | rapid and time-dependent |  | 
B1 |  | 27.3 | 21.7
